Data on 3 molecules can be found in patent US20210198650A1 (NIBEC, published 2021).

The test has as its target T1, cadherin6 (CDH6)-fc fusion protein (UniProt P55285 54-615, limits assumed).
T1 construct: Immobilised on a carboxymethyl dextran SPR chip; also called K-cadherin
T1 sequence (looked up): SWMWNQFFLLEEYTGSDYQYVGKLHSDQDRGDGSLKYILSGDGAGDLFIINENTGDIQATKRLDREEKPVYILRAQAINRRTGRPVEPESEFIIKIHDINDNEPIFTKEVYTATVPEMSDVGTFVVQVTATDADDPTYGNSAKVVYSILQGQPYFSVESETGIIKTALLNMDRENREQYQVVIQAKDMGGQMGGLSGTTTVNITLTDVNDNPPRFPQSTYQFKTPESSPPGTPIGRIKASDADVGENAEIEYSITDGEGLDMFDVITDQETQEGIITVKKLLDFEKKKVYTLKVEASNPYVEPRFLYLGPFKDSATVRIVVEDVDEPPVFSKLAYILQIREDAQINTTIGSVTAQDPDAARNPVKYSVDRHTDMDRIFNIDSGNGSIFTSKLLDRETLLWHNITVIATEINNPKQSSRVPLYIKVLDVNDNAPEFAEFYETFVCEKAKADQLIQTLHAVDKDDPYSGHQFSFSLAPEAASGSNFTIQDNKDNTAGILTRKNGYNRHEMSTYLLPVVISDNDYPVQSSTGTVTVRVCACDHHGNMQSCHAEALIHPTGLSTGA
Briefly: SPR, CDH6-Fc immobilised on carboxymethyl dextran chip, peptide injected. On the procedure: Comparison was made of the affinity of the peptides of the present invention for CDH6. The binding of GRS and GRS-derived peptides to cadherin6 (CDH6)-fc fusion protein was analyzed by surface plasmon resonance (SPR) using SR7500DC, Reichert Analytical Instrument (Depew NY). CDH6 was immobilized on a [CMDH chip] carboxymethyl dextran sensor chip via a free carboxyl group on the surface thereof, followed by injecting 0.1M 1-ethyl-3-(3-dimethylaminopropyl) carbodiimide hydrochloride and 0.05M N-hydroxysuccinimide at a flow speed of 5 μL/min to give an activated succinimide ester-modified surface. Various concentrations of GRS and GRS-derived peptides were injected at a flow speed of 30 μL/min into phosphate-based saline, after which a mobile-phase buffer was injected at the same flow speed to determine a dissociation rate. Data was analyzed using Software Scrubber 2.0 (Biological Software, Australia).
For orientation: In SPR one partner is held on a chip, and binding of the other changes the refractive index at the surface.

B1: GRS-DP-A linear (GRS 531-555 aa) (peptide)
peptide: MYTVFEHTFHVREGDEQRTFFSFPA
notes: Linear 25-mer, 3.079 kDa
For orientation: Kd means a measure of binding affinity in units of concentration. A high value points to weaker binding. The molecule B1 registered a Kd of 61.2 nM.

B2: GRS-DP-A cyclic (peptide)
peptide: CYTVFEHTFHVREGDEQRTFFSFPC
modifications: cyclic form: "monosulfide linkage" formed between the cysteine residues at the opposite termini (Cys 1 and Cys 25)
notes: Cyclised by spontaneous reaction at pH 8; 3.083 kDa; also called GRS-DP-A cyclic variant
In turn, B2 gave a Kd of 51.3 nM.

B3: GRS-DP polypeptide (GRS 531-600 aa) (peptide)
peptide: MYTVFEHTFHVREGDEQRTFFSFPAVVAPFKCSVLPLSQNQEFMPFVKELSEALTRHGVSHKVDDSSGSI
notes: Linear truncated GRS fragment; also called GRS-DP peptide
On to B3, for which binding was characterised by a dissociation constant (Kd) of 83.9 nM.
